Data taken from US20140087995A1 (published 2014).
Numbered stars: 1 amine (or outer) side, 2 acyl side, 3 side chain; on linkers, the order of the positions; unused ones are H or OH. Bridge positions count the residues as written; N and C are the ends. Side chains are listed from the residue outwards. Ends that are not written are not given here. * marks the point of attachment. C20 diacid = O=C(O)CCCCCCCCCCCCCCCCCCC(=O)*; γGlu = O=C(O)[C@H](CCC(=O)[*:2])N[*:1]; AEEA = NCCOCCOCC(=O)O

T1: human calcitonin receptor (human, UniProt P30988 25-474)
T1 construct: whole, on cells; Used as cell membranes prepared from the transfected BHK cells (Assay VII), not as intact cells; also called hCTR; hCT
T1 sequence (looked up): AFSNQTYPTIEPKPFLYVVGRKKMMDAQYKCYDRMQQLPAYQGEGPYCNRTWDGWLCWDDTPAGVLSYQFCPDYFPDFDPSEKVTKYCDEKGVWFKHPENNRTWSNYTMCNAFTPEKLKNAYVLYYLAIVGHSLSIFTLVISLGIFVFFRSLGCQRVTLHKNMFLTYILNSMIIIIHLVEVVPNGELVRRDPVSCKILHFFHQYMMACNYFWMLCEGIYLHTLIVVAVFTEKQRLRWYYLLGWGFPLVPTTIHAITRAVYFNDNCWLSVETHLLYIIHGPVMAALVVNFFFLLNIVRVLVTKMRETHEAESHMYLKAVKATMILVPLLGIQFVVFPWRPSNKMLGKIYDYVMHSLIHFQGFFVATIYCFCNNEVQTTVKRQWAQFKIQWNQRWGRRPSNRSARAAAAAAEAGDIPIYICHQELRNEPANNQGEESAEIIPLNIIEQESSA

B1: N^ε1-[2-[2-[2-[[(4S)-4-carboxy-4-(19-carboxynonadecanoylamino)butanoyl]amino]ethoxy]ethoxy]acetyl]-[Arg17,Pro21,Pro27,Glu35]-h-amylin (peptide)
peptide: K([AEEA-γGlu-C20 diacid])CNTATCATQRLANFLRHSSPNFGAIPSSTNVGSETY-NH2
modifications: disulfide 2-7; N-terminus assumed
SMILES: CC[C@H](C)[C@H](NC(=O)[C@H](C)NC(=O)CNC(=O)[C@H](Cc1ccccc1)NC(=O)[C@H](CC(N)=O)NC(=O)[C@@H]1CCCN1C(=O)[C@H](CO)NC(=O)[C@H](CO)NC(=O)[C@H](Cc1c[nH]cn1)NC(=O)[C@H](CCCNC(=N)N)NC(=O)[C@H](CC(C)C)NC(=O)[C@H](Cc1ccccc1)NC(=O)[C@H](CC(N)=O)NC(=O)[C@H](C)NC(=O)[C@H](CC(C)C)NC(=O)[C@H](CCCNC(=N)N)NC(=O)[C@H](CCC(N)=O)NC(=O)[C@@H](NC(=O)[C@H](C)NC(=O)[C@@H]1CSSC[C@H](NC(=O)[C@@H](N)CCCCNC(=O)COCCOCCNC(=O)CC[C@H](NC(=O)CCCCCCCCCCCCCCCCCCC(=O)O)C(=O)O)C(=O)N[C@@H](CC(N)=O)C(=O)N[C@@H]([C@@H](C)O)C(=O)N[C@@H](C)C(=O)N[C@@H]([C@@H](C)O)C(=O)N1)[C@@H](C)O)C(=O)N1CCC[C@H]1C(=O)N[C@@H](CO)C(=O)N[C@@H](CO)C(=O)N[C@H](C(=O)N[C@@H](CC(N)=O)C(=O)N[C@H](C(=O)NCC(=O)N[C@@H](CO)C(=O)N[C@@H](CCC(=O)O)C(=O)N[C@H](C(=O)N[C@@H](Cc1ccc(O)cc1)C(N)=O)[C@@H](C)O)C(C)C)[C@@H](C)O
notes: also called compound 26
B2: N^ε1-[(4S)-4-carboxy-4-[[(4S)-4-carboxy-4-(19-carboxynonadecanoylamino)butanoyl]amino]butanoyl]-[Asp14,Arg17,Pro21,Pro26,Asp35]-h-amylin (peptide)
peptide: K([γGlu-γGlu-C20 diacid])CNTATCATQRLADFLRHSSPNFGAPLSSTNVGSDTY-NH2
modifications: disulfide 2-7; N-terminus assumed
SMILES: CC(C)C[C@H](NC(=O)[C@H](CCCNC(=N)N)NC(=O)[C@H](CCC(N)=O)NC(=O)[C@@H](NC(=O)[C@H](C)NC(=O)[C@@H]1CSSC[C@H](NC(=O)[C@@H](N)CCCCNC(=O)CC[C@H](NC(=O)CC[C@H](NC(=O)CCCCCCCCCCCCCCCCCCC(=O)O)C(=O)O)C(=O)O)C(=O)N[C@@H](CC(N)=O)C(=O)N[C@@H]([C@@H](C)O)C(=O)N[C@@H](C)C(=O)N[C@@H]([C@@H](C)O)C(=O)N1)[C@@H](C)O)C(=O)N[C@@H](C)C(=O)N[C@@H](CC(=O)O)C(=O)N[C@@H](Cc1ccccc1)C(=O)N[C@@H](CC(C)C)C(=O)N[C@@H](CCCNC(=N)N)C(=O)N[C@@H](Cc1c[nH]cn1)C(=O)N[C@@H](CO)C(=O)N[C@@H](CO)C(=O)N1CCC[C@H]1C(=O)N[C@@H](CC(N)=O)C(=O)N[C@@H](Cc1ccccc1)C(=O)NCC(=O)N[C@@H](C)C(=O)N1CCC[C@H]1C(=O)N[C@@H](CC(C)C)C(=O)N[C@@H](CO)C(=O)N[C@@H](CO)C(=O)N[C@H](C(=O)N[C@@H](CC(N)=O)C(=O)N[C@H](C(=O)NCC(=O)N[C@@H](CO)C(=O)N[C@@H](CC(=O)O)C(=O)N[C@H](C(=O)N[C@@H](Cc1ccc(O)cc1)C(N)=O)[C@@H](C)O)C(C)C)[C@@H](C)O
notes: also called compound 1
B3: N^ε1-[(4S)-4-carboxy-4-(19-carboxynonadecanoylamino)butanoyl]-[Arg17,Pro21,Pro27,Glu35]-h-amylin (peptide)
peptide: K([γGlu-C20 diacid])CNTATCATQRLANFLRHSSPNFGAIPSSTNVGSETY-NH2
modifications: disulfide 2-7; N-terminus assumed
SMILES: CC[C@H](C)[C@H](NC(=O)[C@H](C)NC(=O)CNC(=O)[C@H](Cc1ccccc1)NC(=O)[C@H](CC(N)=O)NC(=O)[C@@H]1CCCN1C(=O)[C@H](CO)NC(=O)[C@H](CO)NC(=O)[C@H](Cc1c[nH]cn1)NC(=O)[C@H](CCCNC(=N)N)NC(=O)[C@H](CC(C)C)NC(=O)[C@H](Cc1ccccc1)NC(=O)[C@H](CC(N)=O)NC(=O)[C@H](C)NC(=O)[C@H](CC(C)C)NC(=O)[C@H](CCCNC(=N)N)NC(=O)[C@H](CCC(N)=O)NC(=O)[C@@H](NC(=O)[C@H](C)NC(=O)[C@@H]1CSSC[C@H](NC(=O)[C@@H](N)CCCCNC(=O)CC[C@H](NC(=O)CCCCCCCCCCCCCCCCCCC(=O)O)C(=O)O)C(=O)N[C@@H](CC(N)=O)C(=O)N[C@@H]([C@@H](C)O)C(=O)N[C@@H](C)C(=O)N[C@@H]([C@@H](C)O)C(=O)N1)[C@@H](C)O)C(=O)N1CCC[C@H]1C(=O)N[C@@H](CO)C(=O)N[C@@H](CO)C(=O)N[C@H](C(=O)N[C@@H](CC(N)=O)C(=O)N[C@H](C(=O)NCC(=O)N[C@@H](CO)C(=O)N[C@@H](CCC(=O)O)C(=O)N[C@H](C(=O)N[C@@H](Cc1ccc(O)cc1)C(N)=O)[C@@H](C)O)C(C)C)[C@@H](C)O
notes: also called compound 27
B4: N^ε1-[(4S)-4-carboxy-4-[[(4S)-4-carboxy-4-(19-carboxynonadecanoylamino)butanoyl]amino]butanoyl]-[Asp14,Arg17,Pro21,Pro27,Arg35]-h-amylin (peptide)
peptide: K([γGlu-γGlu-C20 diacid])CNTATCATQRLADFLRHSSPNFGAIPSSTNVGSRTY-NH2
modifications: disulfide 2-7; N-terminus assumed
SMILES: CC[C@H](C)[C@H](NC(=O)[C@H](C)NC(=O)CNC(=O)[C@H](Cc1ccccc1)NC(=O)[C@H](CC(N)=O)NC(=O)[C@@H]1CCCN1C(=O)[C@H](CO)NC(=O)[C@H](CO)NC(=O)[C@H](Cc1c[nH]cn1)NC(=O)[C@H](CCCNC(=N)N)NC(=O)[C@H](CC(C)C)NC(=O)[C@H](Cc1ccccc1)NC(=O)[C@H](CC(=O)O)NC(=O)[C@H](C)NC(=O)[C@H](CC(C)C)NC(=O)[C@H](CCCNC(=N)N)NC(=O)[C@H](CCC(N)=O)NC(=O)[C@@H](NC(=O)[C@H](C)NC(=O)[C@@H]1CSSC[C@H](NC(=O)[C@@H](N)CCCCNC(=O)CC[C@H](NC(=O)CC[C@H](NC(=O)CCCCCCCCCCCCCCCCCCC(=O)O)C(=O)O)C(=O)O)C(=O)N[C@@H](CC(N)=O)C(=O)N[C@@H]([C@@H](C)O)C(=O)N[C@@H](C)C(=O)N[C@@H]([C@@H](C)O)C(=O)N1)[C@@H](C)O)C(=O)N1CCC[C@H]1C(=O)N[C@@H](CO)C(=O)N[C@@H](CO)C(=O)N[C@H](C(=O)N[C@@H](CC(N)=O)C(=O)N[C@H](C(=O)NCC(=O)N[C@@H](CO)C(=O)N[C@@H](CCCNC(=N)N)C(=O)N[C@H](C(=O)N[C@@H](Cc1ccc(O)cc1)C(N)=O)[C@@H](C)O)C(C)C)[C@@H](C)O
notes: also called compound 52
B5: N^ε1-[(4S)-4-carboxy-4-(19-carboxynonadecanoylamino)butanoyl]-[Arg17,Pro21,Pro27,Lys35]-h-amylin (peptide)
peptide: K([γGlu-C20 diacid])CNTATCATQRLANFLRHSSPNFGAIPSSTNVGSKTY-NH2
modifications: disulfide 2-7; N-terminus assumed
SMILES: CC[C@H](C)[C@H](NC(=O)[C@H](C)NC(=O)CNC(=O)[C@H](Cc1ccccc1)NC(=O)[C@H](CC(N)=O)NC(=O)[C@@H]1CCCN1C(=O)[C@H](CO)NC(=O)[C@H](CO)NC(=O)[C@H](Cc1c[nH]cn1)NC(=O)[C@H](CCCNC(=N)N)NC(=O)[C@H](CC(C)C)NC(=O)[C@H](Cc1ccccc1)NC(=O)[C@H](CC(N)=O)NC(=O)[C@H](C)NC(=O)[C@H](CC(C)C)NC(=O)[C@H](CCCNC(=N)N)NC(=O)[C@H](CCC(N)=O)NC(=O)[C@@H](NC(=O)[C@H](C)NC(=O)[C@@H]1CSSC[C@H](NC(=O)[C@@H](N)CCCCNC(=O)CC[C@H](NC(=O)CCCCCCCCCCCCCCCCCCC(=O)O)C(=O)O)C(=O)N[C@@H](CC(N)=O)C(=O)N[C@@H]([C@@H](C)O)C(=O)N[C@@H](C)C(=O)N[C@@H]([C@@H](C)O)C(=O)N1)[C@@H](C)O)C(=O)N1CCC[C@H]1C(=O)N[C@@H](CO)C(=O)N[C@@H](CO)C(=O)N[C@H](C(=O)N[C@@H](CC(N)=O)C(=O)N[C@H](C(=O)NCC(=O)N[C@@H](CO)C(=O)N[C@@H](CCCCN)C(=O)N[C@H](C(=O)N[C@@H](Cc1ccc(O)cc1)C(N)=O)[C@@H](C)O)C(C)C)[C@@H](C)O
notes: also called compound 35
B6: N^ε1-[(4S)-4-carboxy-4-[[(4S)-4-carboxy-4-(19-carboxynonadecanoylamino)butanoyl]amino]butanoyl]-[Asp14,Arg17,Pro21,Pro27,Asp35]-h-amylin (peptide)
peptide: K([γGlu-γGlu-C20 diacid])CNTATCATQRLADFLRHSSPNFGAIPSSTNVGSDTY-NH2
modifications: disulfide 2-7; N-terminus assumed
SMILES: CC[C@H](C)[C@H](NC(=O)[C@H](C)NC(=O)CNC(=O)[C@H](Cc1ccccc1)NC(=O)[C@H](CC(N)=O)NC(=O)[C@@H]1CCCN1C(=O)[C@H](CO)NC(=O)[C@H](CO)NC(=O)[C@H](Cc1c[nH]cn1)NC(=O)[C@H](CCCNC(=N)N)NC(=O)[C@H](CC(C)C)NC(=O)[C@H](Cc1ccccc1)NC(=O)[C@H](CC(=O)O)NC(=O)[C@H](C)NC(=O)[C@H](CC(C)C)NC(=O)[C@H](CCCNC(=N)N)NC(=O)[C@H](CCC(N)=O)NC(=O)[C@@H](NC(=O)[C@H](C)NC(=O)[C@@H]1CSSC[C@H](NC(=O)[C@@H](N)CCCCNC(=O)CC[C@H](NC(=O)CC[C@H](NC(=O)CCCCCCCCCCCCCCCCCCC(=O)O)C(=O)O)C(=O)O)C(=O)N[C@@H](CC(N)=O)C(=O)N[C@@H]([C@@H](C)O)C(=O)N[C@@H](C)C(=O)N[C@@H]([C@@H](C)O)C(=O)N1)[C@@H](C)O)C(=O)N1CCC[C@H]1C(=O)N[C@@H](CO)C(=O)N[C@@H](CO)C(=O)N[C@H](C(=O)N[C@@H](CC(N)=O)C(=O)N[C@H](C(=O)NCC(=O)N[C@@H](CO)C(=O)N[C@@H](CC(=O)O)C(=O)N[C@H](C(=O)N[C@@H](Cc1ccc(O)cc1)C(N)=O)[C@@H](C)O)C(C)C)[C@@H](C)O
notes: also called compound 2

What follows are binders tested against T1, human calcitonin receptor (assay: SPA competition against 125I-calcitonin, membranes with human calcitonin receptor (Assay VII)).
Experimental: Membranes were prepared in the following way; the cells were rinsed with PBS and incubated with Versene for approximately 5 min before harvesting. The cells were flushed with PBS and the cell-suspension was centrifuged for 5 min at 1000 rpm. Cells were homogenized (Ultrathurrax) in a buffer containing 20 mM Na-HEPES and 10 mM EDTA (pH 7.4) and centrifuged at 20.000 rpm for 15 min. The resulting pellet was resuspended, homogenized and centrifuged (20.000 rpm, 15 min) in a buffer containing 20 mM Na-HEPES and 0.1 mM EDTA (pH 7.4, buffer 2). The resulting pellet was resuspended in buffer 2 and protein concentration was measured (BCA protein Assay, Pierce). The homogenate was kept cold during the whole procedure. The membranes were kept at −80° C. until use. Assay was performed in a 384 well Optiplate (PerkinElmer) in a total volume of 40 ul. Membranes were mixed with SPA beads. Final concentration of membranes 35 ng/μL final and Final concentration of SPA beads was 0.05 mg/well. Test-compounds were dissolved in DMSO and further diluted in assay buffer (50 mM Hepes, pH 7.4, 1 mM CaCl2, 5 mM MgCl₂, 0.1% OA and 0.02% Tween20). […] The final mixture was incubated for 120 min with shaking at 400 rpm at 25° C. prior to centrifugation (1500 rpm, 10 min). Samples were analyzed on TopCounter™ (Packard). The […] was calculated using (one site binding competition analysis) GraphPad Prism5 as a measure of receptor affinity.
Work on B1 yielded an IC50 of 25.3 nM. B2 showed an IC50 of 32.5 nM. B3 gave an IC50 of 34.5 nM. B4 gave an IC50 of 56.9 nM. With B5 the IC50 was 48.8 nM. B6 was tested, and the IC50 was 19.5 nM.
